± gives the uncertainty stated by the source.

This data set can be described thus: amyloid nucleation score (Sup35N fusion, yeast selection) (log enrichment); library NNK1; higher = more nucleation; inactive = no reads after selection. The essentials: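 Three technical output replicates were used for random libraries. Psi-negative yeast expressing peptides of 20 random codons fused to Sup35N were induced with 100 μM copper sulfate for 24 hours and grown 7 days at 30°C on medium lacking adenine and uracil, and input and output plasmid inserts were Illumina-sequenced, excluding sequences with under 100 input reads. The nucleation score is the DiMSum log enrichment of output over input reads, centred on the mode score of non-aggregating sequences.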
The substance GRGVPGCGCIRDRSLMTNWS displayed an amyloid nucleation score of -0.664 ± 0.41.
With GRKIDCGRLIMIAVRCNQVA the figure was 0.358 ± 0.41; with GRLSGYEWGRKSRSPGRWTV, 0.438 ± 1.1; with GRMHKLVNCRAFTGLYKGIY, -1.03 ± 0.62.
In the case of GRMTFFLVWNCVSFFVTQLL, the amyloid nucleation score was -0.611 ± 2.1.
As for GRREMEGTHIKKICRGGRTR, the amyloid nucleation score is 1.53 ± 0.73.
To GRRYCRANSWLATTSSRISL belongs 2.1 ± 0.44.
To GRSLSFLLIGKYWQYTTQAR belongs “inactive”; to GRVCKHIFK, 0.375 ± 1.2; to GRVLDGRILLPVILSVWGCS, -0.563 ± 1.1.
GRYILGFE displayed an amyloid nucleation score of 2.17 ± 0.17.
In the case of GSCLIRASFQVHMILSSGHL, the amyloid nucleation score result is “inactive”.
To GSDMCKSSVSECIKKLATIQ belongs “inactive”; to GSHSRGY, -0.289 ± 0.36; to GSKKYQIMSVSELKVQCCGS, 0.445 ± 0.34.
GSKRT displayed an amyloid nucleation score of 0.316 ± 0.42.
With GSMDCLYVSYLGNYENRYRG the figure was 0.232 ± 0.79; with GSNLVQKRRCYSWMSLYLSS, 0.333 ± 0.26; with GSPLVVSKTVVFMSGNF, 7.149 ± 0.052.
With GSQIWW the figure was 0.517 ± 0.46; with GSQMYNVHVVCVT, 0.154 ± 0.73.
To GSRLCRMSSSMIGSLRVIWG belongs -0.146 ± 0.25.
In turn, GSSRDNGQFYSFELS registered an amyloid nucleation score of 0.398 ± 0.64.
With GSSRKSIVNIRILPSFALAE the figure was -0.272 ± 0.52.
As for GSTENTVYRRGEFGELVWKC, the amyloid nucleation score is -0.311 ± 0.44.
With GSVAFFNLNMLRVLYIIYER the figure was 0.369 ± 0.36; with GSWQDSRRNFWSGRGMFERV, 0.484 ± 0.47.
With GSYGERIGEDVVNFARSYNG the figure was 0.267 ± 0.38; with GSYGNDVWRP, -0.041 ± 0.47; with GSYWWDCFVNGGYEKFCTVP, 0.191 ± 0.68.
With GTIWYITLAGRFNDVIIYTM the figure was 2.4 ± 0.077.
As to GTREPDFGCKLDWDSY, the amyloid nucleation score was 0.924 ± 0.25.
To GTSSRNLAFLVPWMVYMRVR belongs 0.635 ± 0.41; to GTTLDYWRVMEMSGDFTSFC, -0.073 ± 0.68.
To GTYRRQKMELMYSSLGLFGC belongs -0.634 ± 0.56; to GVALFVIGLNSQIVANSYTS, 6.285 ± 0.055.
For GVAWMFLCYVLAA, the amyloid nucleation score came to 0.575 ± 0.27.
To GVCVEFCLRGSRFWLMKNKA belongs 0.383 ± 0.84.
As for GVCWLKIRALPDSYWLVFL, the amyloid nucleation score is -0.776 ± 0.74.
For the substance GVDGFWRMVSKLPHGRLDQH, the amyloid nucleation score was -0.123 ± 0.38.
Regarding GVDSFTDSIEYKVGRRVFRH, the amyloid nucleation score amounted to 1.21 ± 0.76.
To GVFMKYQ belongs 0.18 ± 1.2; to GVGLDCFDRTWFWMFQTPQC, 0.483 ± 0.35; to GVGSSFSTSKAYWVGYECIT, -0.217 ± 0.41.
With GVLEVIYVSLFRGRAESVFR the figure was 1.67 ± 0.34; with GVLRHNCFIESGRIISVMVT, -0.404 ± 0.65.
With GVLVKNQGLLVNAIHSMQTN the figure was -0.797 ± 2.4.
With GVMACDMCCPNKRVSEPRAS, the amyloid nucleation score is -0.278 ± 0.41.
With GVMIWRQRWRKVIVGGALRW the figure was -0.217 ± 0.63.
With GVNCKYVVLKNNVIWTHCLR the figure was 6.453 ± 0.05.
To GVPDFA belongs 0.685 ± 0.7.
For GVQAVSSPTSVFK, the amyloid nucleation score was 0.462 ± 0.85.
In turn, GVQFQVVRMSCSVLSARLRL registered an amyloid nucleation score of 1.29 ± 0.18.
GVSVSYLDGGMAWPNEGGRK: the amyloid nucleation score stood at 0.19 ± 0.62.
With GWCRG, the amyloid nucleation score result was “inactive”.
With GWENSLYNFFCLW the figure was 0.342 ± 0.35; with GWIVAMRKR, 0.236 ± 1.6.
With GWMVRMLEHYHPAV the figure was -0.226 ± 0.42; with GWNVTEIYFFMWVRITSGWM, 2.27 ± 0.19.
Turning to GWYSFLPSRNYFK, the amyloid nucleation score came out at 4.92 ± 0.072.
As to GYGWFLCTIHVQKLVCWPTL, the amyloid nucleation score is -0.114 ± 1.1.
To GYHSFGLVHEGETGK belongs “inactive”; to GYHSKFRWVLLFVVTSASGE, “inactive”.
On to GYHSMLSLDDQIFVKLHDAK, for which the amyloid nucleation score came out at 0.135 ± 1.2.
As for GYLSGSMSDETGTPDMCTRG, the amyloid nucleation score is 0.353 ± 0.51.
The substance GYVDPFRLYQGLMIFDYVGS returned an amyloid nucleation score of -0.332 ± 0.44.
The substance HAIFCLSKLTFLGPILGSFT displayed an amyloid nucleation score of 7.112 ± 0.048.
HAKHLLRKQWLDGCA: the amyloid nucleation score result was “inactive”.
With HANCG the figure was -0.155 ± 0.59; with HASWVRAITWVHQAGTYVML, -0.693 ± 1.3; with HCCFTGRKGYSRFAVLSCST, 1.11 ± 0.48.
With HCLGIRMVRRYILDRRCHWV the entry was “inactive”; with HCMLGMFHWVRRQVYRSTKW, 2.34 ± 0.25.
Turning to HCRKYTKTSR, the amyloid nucleation score was -0.327 ± 0.47.
To HDGLLVFAFHY belongs -0.378 ± 1.4.
With HELMLQILGLAFLLGMFAGV the figure was -0.747 ± 0.63.
With HFLTDMNFKRARDSDLSSVW, the amyloid nucleation score was 0.489 ± 0.29.
With HFVILVLFMMMSSIGMVTRA the figure was 5.16 ± 0.054; with HFWLDARSRAKKPAQGIIKG, -0.426 ± 0.34.
With HGGKCLSMRYRDCALWTFQG the figure was 0.031 ± 1.2; with HGGRDVCDKGVSSRGHRW, 0.276 ± 0.79.
With HGLKWGFQLTNLSMLVTSCM the figure was -0.475 ± 1.1; with HHAGPSG, 0.72 ± 0.46.
For the substance HHALHAKAERLTPPMPPCKM, the amyloid nucleation score came to 0.714 ± 0.84.
With HHCHSSGL, the amyloid nucleation score came to 0.981 ± 0.93.
Regarding HHGRFRCKAVCRRKCGLVQV, the amyloid nucleation score result was “inactive”.
To HIFWYCHMFPVVMASIIINS belongs 0.637 ± 0.59.
To HILRIWLRGLWMILYRTYEN belongs -0.513 ± 0.84; to HLLRRHYNCLSHLGWCNGLF, -0.024 ± 0.29; to HLNLIVTRFASIWVAAFMCR, -0.282 ± 0.77.
With HLPFYLCF the figure was 1.57 ± 0.43.
HLPTKLPSRIRYRCYDFHVI returned an amyloid nucleation score of -0.546 ± 0.97.
The substance HLSSTVITLVPCRLEMYLEG returned an amyloid nucleation score of 0.55 ± 0.25.
With HLYGVR, the amyloid nucleation score was found to be 0.267 ± 0.84.
With HMITSLRWSSLRSWTQVWLR the entry was “inactive”.
With HMRGLG, the amyloid nucleation score was found to be 6.77 ± 0.083.
To HMSDNGLSSMKRVYVVYPTT belongs -0.049 ± 0.23.
To HMSWMYEWMNVTCKVNMCR belongs 2.06 ± 0.24.
With HNCCDEVCGSNSGLFFRFMN the figure was 0.979 ± 0.65.
On to HNYSDFFNESWHNGLIYSY, for which the amyloid nucleation score is -0.571 ± 1.
To HPMITRFLAD belongs 0.413 ± 1.4; to HQINRWRLLPRGGTFKDGHN, 0.703 ± 0.54.
To HQLGQYHTACHAPSARCTPL belongs -0.221 ± 0.52; to HQYVMFESLTYICLPLRDRL, 4.98 ± 0.1.
With HRCQSSSRRPMNGFGTCQRS the figure was 0.321 ± 0.34; with HRGLSLLAGVSALVWKSQMT, -0.4 ± 1.1.
On to HRGVLQLR, for which the amyloid nucleation score is 0.764 ± 0.84.
Substance HRITSFVYYFGLSSEFYIYP displayed an amyloid nucleation score of 0.009 ± 1.1.
With HRIWRLLALNT the figure was -0.583 ± 0.54; with HRNSCVPPGVAGIVTVCL, 0.363 ± 0.6; with HRYRGRNLLILCRNDDWCDF, 1.26 ± 0.47.
The substance HSASQLPYYQY came in with an amyloid nucleation score of 0.498 ± 0.97.
HSCSVPLWIWRFSVRAKGCK yielded an amyloid nucleation score of 0.562 ± 0.57.
With HSDVHNCFLLCRCTGYCLYS the figure was 3.96 ± 0.16; with HSGTSCWVGIIDV, -0.248 ± 0.28; with HSHHGSSV, 1.08 ± 0.76.
To HSIERTWPVRRPKCESKLKF belongs -0.91 ± 1.3; to HSRRCYNESS, 1.7 ± 0.55; to HSSDMCLSGLM, 0.002 ± 1.4.
The substance HSWGRKVF yielded an amyloid nucleation score of -1.1 ± 0.47.
Take HTISENRSGLVTP: the amyloid nucleation score was -0.966 ± 0.9.
As to HTTFKGKSEAATRIIATQAR, the amyloid nucleation score is -0.011 ± 0.41.
To HTVKAK belongs -2.11 ± 1.1; to HTYDGHSVSGCTGHVMFLSS, -0.021 ± 0.41; to HVFSQ, -0.756 ± 2.4.
In turn, HVHRIN came in with an amyloid nucleation score of -0.717 ± 1.1.
With HVIQKSN the figure was -0.988 ± 0.5.
In turn, HVLDRQLSPMDSNSYGCVAT showed an amyloid nucleation score of 0.208 ± 0.28.
HVLMIRWLWWGISRACKNSR displayed an amyloid nucleation score of -0.193 ± 1.6.
HVVVRRIY returned an amyloid nucleation score of -0.065 ± 0.34.
To HVWSILAISVYNAHRGSRV belongs 7.134 ± 0.051.
HVYCLRWRYC came in with an amyloid nucleation score of -0.318 ± 0.35.
On to HVYLTWTGLVGLKWCSGCSA, for which the amyloid nucleation score is -0.856 ± 2.4.
As for HVYVWKRTVPGIGRDQHNSR, the amyloid nucleation score came out at 1.81 ± 0.6.
To HWCLMGLCKLFSSARPPLKK belongs 0.085 ± 0.8.
With HWFESDFAI the entry was “inactive”; with HWLFWCQR, “inactive”; with HWLQY, 0.156 ± 0.43.
Regarding HWVLDWQAQVRMPRNSVSGL, the amyloid nucleation score entry was “inactive”.
Consider HYDLWCLMFFLVSMMSVNCH, for which the amyloid nucleation score was 0.972 ± 0.54.

These data come from the supplement of paper PMC12042874.
